In data set [1] the target is BOS 3 fusion (NLS-ZFP-KRAB-FLAG) (synthetic construct). In words: ChIP anti-FLAG, MCF-7 cells, amplicon 230 bp upstream of site. The settings on record: tags: NLS, KRAB repression domain. On the procedure: The sonicated lysate was centrifuged at 13,000 rpm for 10 min at 4° C., and the supernatant was recovered. 1.8 ml of ChIP buffer (16.7 mM Tris-Cl, pH 8.1, 1.2 mM EDTA, 167 mM NaCl, 1.1% Triton X-100, 0.01% SDS, 0.5 mM PMSF, 20 ug/ml aprotinin, 20 ug/ml pepstatin, 20 ug/ml leupeptin) was added to the cleared supernatant and 0.2 ml was removed as a pre-immunoprecipitation (pre-IP) input control. The input control sample was analyzed by agarose gel electrophoresis to verify that DNA fragments of 200-500 nucleotide pairs had been obtained.
The remainder of the sonicated lysate was pre-cleared by adding 0.1 ml of a 50% slurry of Protein A agarose beads (also containing salmon sperm DNA at 200 ug/ml), followed by gentle agitation for 90 min. The lysate was separated from the beads by centrifugation at 1,000 xg for 5 min at 4° C. The cleared lysate was divided into two equal portions. […]
Immune complexes were eluted from the beads by washing them twice with 0.25 ml of 1% SDS, 0.1 M NaHCO₃. […] The purified DNA was analyzed by real-time quantitative PCR, an assay known colloquially as “Taqman®.” The DNA was analyzed for the relative proportion of two sequences: (1) a region located 230 nucleotide pairs upstream of the BOS 3 binding site, and (2) a control sequence from the 18S rRNA gene.

Data set [2] concerns the target T1, VEGF 1 ZFP (NLS-ZFP-VP16-FLAG) (synthetic construct (SP1 backbone)).
T1 chain: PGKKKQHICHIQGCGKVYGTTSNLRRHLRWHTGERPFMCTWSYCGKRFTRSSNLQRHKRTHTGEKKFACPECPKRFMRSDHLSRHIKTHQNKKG
In words: ChIP anti-FLAG, 293 cells, GAPDH-normalized. On the procedure: (§1) Immunoprecipitated DNA, obtained as described in Example 11, was used as template in a real-time amplification assay. Three DNA targets were assayed: the integrated reporter gene containing four tandem VEGF 3a/1 binding sites (pGL-VFR), the endogenous VEGF gene, and the endogenous glyceraldehyde phosphate dehydrogenase (GAPDH) gene (which was used as a control for nonspecific precipitation).
(§2) The values obtained for the endogenous VEGF gene (VEGF) and for the integrated reporter containing VEGF target sites (pGL-VFR), normalized to the values obtained for GAPDH, were then normalized to the values obtained for cells transfected with NVF, a construct that lacks a zinc finger DNA-binding domain, to obtain a value for the degree to which VEGF sequences were enriched in immunoprecipitates from cells transfected with a construct encoding a ZFP. […] Furthermore, sequences from an integrated reporter gene containing VEGF target sequences were enriched 170-fold by the VEGF 3a/1 protein and approximately 8-fold by the three-finger VEGF 1 protein.

The target in data set [3] is T1, VEGF 1 ZFP (NLS-ZFP-VP16-FLAG). Put plainly: cell_activity; 293 cells; VEGF protein 1.5; mRNA 2.7 and protein 3.1 in Table 9. From the text: Activation of the integrated luciferase reporter gene containing VEGF target sites and immunoprecipitation of reporter sequences by the VEGF 1 and VEGF 3a/1 proteins, as shown in examples 10 and 11, provided evidence that these exogenous ZFPs are binding to their target sites in cellular chromatin. To investigate this question further, the expression of the endogenous VEGF gene was examined in cells containing exogenous VEGF 1 and VEGF 3a/1 proteins. Accordingly, the same samples that were analyzed in Examples 10 and 11 were assayed for endogenous VEGF MRNA (by real-time PCR analysis using reverse transcriptase-mediated PCR) and for VEGF protein (by ELISA). […] The apparent activation of the endogenous VEGF gene by the GATA 15.5 ZFP is explained by the data obtained in Example 14, infra.
The production of mRNA and protein from the endogenous VEGF gene was assayed as described in Example 13, and the results are shown in Table 9. […] The activation of the endogenous VEGF gene by GATA 15.5 is consistent with the ability of this protein to immunoprecipitate endogenous VEGF sequences (Table 7).

The target is the same in data set [4]. In words: ChIP anti-FLAG, 293 cells, GAPDH-normalized; 8.3 in Table 7. On the procedure: as §1, §2
Data set [5] has the same target. Put plainly: cell_activity; 293 cells, integrated reporter; 6 in Table 8.

This note sets out measurements from patent publication US20020064802, “Methods for binding an exogenous molecule to cellular chromatin” (published 2002).

BOS 3 fusion (NLS-ZFP-KRAB-FLAG) (synthetic construct), sequence (chain, as listed by the source): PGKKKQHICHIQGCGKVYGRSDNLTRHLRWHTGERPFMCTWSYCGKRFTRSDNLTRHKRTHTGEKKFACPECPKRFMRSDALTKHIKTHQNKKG

B1: endogenous ER-alpha gene BOS 3 site, -2 kb hypersensitive region (dsDNA)
DNA 1: GGGGAGGAG
DNA 2: CTCCTCCCC
Consider B1, for which, in data set [1], the binding signal is ~20 fold enrichment vs cells without BOS3.

B2: endogenous VEGF-A gene target at +1 accessible region (dsDNA)
DNA 1: GGGGAGGATCGCGGAGGCTT
DNA 2: AAGCCTCCGCGATCCTCCCC
B2: the binding signal in data set [2] stood at 4.1 fold enrichment vs NVF. For the same molecule, the activity in data set [3] was 3.2 fold VEGF mRNA vs NVF.

B3: pGL-VFR integrated reporter, VEGF 3a/1 target (four tandem copies) (dsDNA)
DNA 1: GGGGAGGATCGCGGAGGCTT
DNA 2: AAGCCTCCGCGATCCTCCCC
In data set [4], B3 registered a binding signal of 10.7 fold enrichment vs NVF. In addition, the activity in data set [5] came to 2.7 fold luciferase vs NVF.
